Numbering of substitutions follows the chain as printed. Names and notes keep the numbering of the source.
T1: human FcγRIIb extracellular domain, His-tagged (human, UniProt P31994 43-217)
T1 construct: also called FcgRIIb; not shown: C-terminal His-tag
T1 sequence: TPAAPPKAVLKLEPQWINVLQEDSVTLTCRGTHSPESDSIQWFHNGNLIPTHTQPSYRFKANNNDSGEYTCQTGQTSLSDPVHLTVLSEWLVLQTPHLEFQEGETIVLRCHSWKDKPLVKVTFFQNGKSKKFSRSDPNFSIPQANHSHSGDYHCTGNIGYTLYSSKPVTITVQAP

T2: cynomolgus monkey FcγRIIa3 extracellular domain, His-tagged (cynomolgus monkey)
T2 construct: also called cyno FcγRIIa3; cynoFcgRIIa3; not shown: C-terminal His-tag
T2 chain: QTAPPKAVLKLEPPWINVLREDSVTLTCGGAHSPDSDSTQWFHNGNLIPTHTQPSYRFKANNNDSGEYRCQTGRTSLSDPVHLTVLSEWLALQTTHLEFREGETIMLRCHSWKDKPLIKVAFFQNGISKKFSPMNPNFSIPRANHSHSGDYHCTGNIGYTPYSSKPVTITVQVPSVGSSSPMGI

T3: human FcγRIIaH extracellular domain, His-tagged (human, UniProt P12318 34-217)
T3 construct: also called human FcγRIIa (type H); FcgRIIaH; not shown: C-terminal His-tag
T3 sequence: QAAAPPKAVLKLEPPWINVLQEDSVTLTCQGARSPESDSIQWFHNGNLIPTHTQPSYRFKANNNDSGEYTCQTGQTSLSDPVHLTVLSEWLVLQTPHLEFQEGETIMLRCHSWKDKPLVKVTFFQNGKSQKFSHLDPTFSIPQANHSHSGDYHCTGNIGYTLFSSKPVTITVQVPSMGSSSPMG

T4: cynomolgus monkey FcγRIIb extracellular domain, His-tagged (cynomolgus monkey)
T4 construct: also called cyno FcγRIIb; cynoFcγRIIb; not shown: C-terminal His-tag
T4 chain: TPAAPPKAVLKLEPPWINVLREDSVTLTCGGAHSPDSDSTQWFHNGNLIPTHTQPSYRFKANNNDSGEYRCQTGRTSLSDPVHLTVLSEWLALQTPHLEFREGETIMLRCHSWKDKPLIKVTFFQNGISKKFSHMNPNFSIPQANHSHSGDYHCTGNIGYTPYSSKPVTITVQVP

T5: human FcγRIIaR extracellular domain, His-tagged (human, UniProt P12318 34-217)
T5 construct: also called human FcγRIIa (type R); FcgRIIaR; not shown: C-terminal His-tag
T5 chain: T3 sequence with H134R

T6: cynomolgus monkey FcγRIIa1 extracellular domain, His-tagged (cynomolgus monkey)
T6 construct: also called cyno FcγRIIa1; cynoFcgRIIa1; not shown: C-terminal His-tag
T6 chain: T2 chain with T95P, A121T, S128A, P133H, N135D

T7: cynomolgus monkey FcγRIIa2 extracellular domain, His-tagged (cynomolgus monkey)
T7 construct: also called cyno FcγRIIa2; cynoFcgRIIa2; not shown: C-terminal His-tag
T7 chain: T2 chain with I127K, K130N, P133H, R142Q

T8: cynomolgus monkey FcγRIIIaS extracellular domain, His-tagged (cynomolgus monkey, UniProt Q8SPW2 21-206 at identity 1.00))
T8 construct: also called cyno FcγRIIIaS; cynoFcγRIIIaS; not shown: C-terminal His-tag
T8 chain: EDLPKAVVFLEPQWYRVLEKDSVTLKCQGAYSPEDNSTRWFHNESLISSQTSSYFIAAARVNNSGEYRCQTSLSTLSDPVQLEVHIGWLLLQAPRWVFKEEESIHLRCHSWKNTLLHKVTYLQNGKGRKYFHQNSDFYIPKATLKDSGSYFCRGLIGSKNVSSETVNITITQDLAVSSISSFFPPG

B1: M103205H795-MY066/M103202L889-SK1 (antibody, human IgG1, kappa)
heavy: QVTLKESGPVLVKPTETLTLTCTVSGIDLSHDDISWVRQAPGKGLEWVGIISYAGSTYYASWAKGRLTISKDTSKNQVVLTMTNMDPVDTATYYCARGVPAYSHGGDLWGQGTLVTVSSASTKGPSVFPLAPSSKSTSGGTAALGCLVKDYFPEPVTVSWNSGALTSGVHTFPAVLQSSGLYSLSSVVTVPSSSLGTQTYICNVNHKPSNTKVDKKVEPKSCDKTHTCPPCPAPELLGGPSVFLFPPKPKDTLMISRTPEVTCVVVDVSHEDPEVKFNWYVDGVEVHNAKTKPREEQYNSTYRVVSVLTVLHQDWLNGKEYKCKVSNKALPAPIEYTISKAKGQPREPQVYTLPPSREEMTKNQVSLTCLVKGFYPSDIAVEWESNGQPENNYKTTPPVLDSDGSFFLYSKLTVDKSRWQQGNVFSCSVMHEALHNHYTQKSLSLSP
light: DIVMTQSPATLSLSPGERATLSCTSSQSVYHANWLSWFQQKPGQPPKLLIYWASTLAYGVPSRFSGSGSGTDFTLTISSLQPEDAATYYCAGGYGGGRYAFGQGTKVEIKRTVAAPSVFIFPPSDEQLKSGTASVVCLLNNFYPREAKVQWKVDNALQSGNSQESVTEQDSKDSTYSLSSTLTLSKADYEKHKVYACEVTHQGLSSPVTKSFNRGEC
notes: Substitution introduced into M103205H795-SG1 and expressed with M103202L889-SK1 as light chain; also called K334Y variant of MS1032LO06-SG1
B2: M103205H795-MY067/M103202L889-SK1 (antibody, human IgG1, kappa)
heavy: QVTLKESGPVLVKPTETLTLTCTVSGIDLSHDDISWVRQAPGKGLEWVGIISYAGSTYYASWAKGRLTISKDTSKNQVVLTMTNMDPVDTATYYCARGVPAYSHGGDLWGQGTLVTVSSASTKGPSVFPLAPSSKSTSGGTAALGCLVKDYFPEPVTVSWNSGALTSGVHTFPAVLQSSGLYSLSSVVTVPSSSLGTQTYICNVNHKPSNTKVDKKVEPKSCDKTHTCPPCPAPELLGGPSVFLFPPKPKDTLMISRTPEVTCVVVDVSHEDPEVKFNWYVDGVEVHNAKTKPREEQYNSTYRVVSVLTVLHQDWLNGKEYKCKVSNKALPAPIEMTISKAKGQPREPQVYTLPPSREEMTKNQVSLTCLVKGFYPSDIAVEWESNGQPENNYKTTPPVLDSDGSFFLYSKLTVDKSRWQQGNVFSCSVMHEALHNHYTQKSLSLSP
light: B1 light
notes: Substitution introduced into M103205H795-SG1 and expressed with M103202L889-SK1 as light chain; also called K334M variant of MS1032LO06-SG1
B3: M103205H795-MY015/M103202L889-SK1 (antibody, human IgG1, kappa)
heavy: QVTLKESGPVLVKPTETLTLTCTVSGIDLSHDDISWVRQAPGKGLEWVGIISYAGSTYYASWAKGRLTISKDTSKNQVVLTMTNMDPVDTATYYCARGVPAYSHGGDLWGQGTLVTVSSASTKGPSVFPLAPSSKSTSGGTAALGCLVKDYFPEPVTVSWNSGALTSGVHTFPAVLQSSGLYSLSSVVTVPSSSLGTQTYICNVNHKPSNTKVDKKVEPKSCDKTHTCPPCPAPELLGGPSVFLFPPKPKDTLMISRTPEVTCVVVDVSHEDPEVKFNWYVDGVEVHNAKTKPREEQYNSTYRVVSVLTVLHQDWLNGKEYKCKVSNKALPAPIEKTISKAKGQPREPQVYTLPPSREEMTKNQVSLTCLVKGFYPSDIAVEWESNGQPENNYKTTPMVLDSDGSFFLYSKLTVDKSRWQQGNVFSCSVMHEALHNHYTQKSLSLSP
light: B1 light
notes: Substitution introduced into M103205H795-SG1 and expressed with M103202L889-SK1 as light chain; also called P396M variant of MS1032LO06-SG1

Columns and labels:
Test in all cases: SPR (BIACORE), antibody captured on chip, FcγR as analyte, 25 °C; KD of SG1 divided by KD of the variant
[1] = target: T1, human FcγRIIb extracellular domain, …
Experimental: (§1) After the measurement, the antibody captured on the chip was washed off by allowing reaction with 10 mM glycine-HCl, pH1.5 and 25 mM NaOH so that the chip was regenerated and used repeatedly. The sensorgrams obtained as measurement results were analyzed by the 1:1 Langmuir binding model using the BIACORE® Evaluation Software to calculate the binding rate constant ka (L/mol/s) and dissociation rate constant kd (l/s), and the dissociation constant KD (mol/L) was calculated from these values. […] Regarding such interactions, KD values were calculated using the following 1:1 binding model described in BIACORE® T100 Software Handbook BR1006-48 Edition AE.
(§2) The behavior of interacting molecules according to the 1:1 binding model on BIACORE® can be described by Equation 1: Req=C·R max/(KD+C)+RI, wherein, Req is a plot of steady-state binding levels to analyte concentration. C is concentration, RI is bulk refractive index contribution in the sample, and Rmax is analyte binding capacity of the surface. When this equation is rearranged, KD can be expressed as Equation 2: KD=C·Rmax/(Req−RI)−C. KD can be calculated by substituting the values of Rmax, RI, and C into Equation 1 or Equation 2. From the current measurement conditions, RI=0, C=2 μmol/L can be used.

[2] = target: T2, cynomolgus monkey FcγRIIa3 …
Experimental: as §1, §2

[3] = target: T3, human FcγRIIaH extracellular domain, …
Experimental: as §1, §2

[4] = target: T4, cynomolgus monkey FcγRIIb extracellular …
Experimental: as §1, §2

[5] = target: T5, human FcγRIIaR extracellular domain, …
Experimental: as §1, §2

[6] = target: T6, cynomolgus monkey FcγRIIa1 …
Experimental: as §1, §2

[7] = target: T9, human FcγRIIIaV extracellular domain, His-tagged (human, UniProt P08637 17-208)
T9 construct: also called human FcγRIIIa (V158 allotype); FcgRIIIaV; not shown: C-terminal His-tag
Experimental: as §1, §2

[8] = target: T7, cynomolgus monkey FcγRIIa2 …
Experimental: as §1, §2

[9] = target: T8, cynomolgus monkey FcγRIIIaS …
Experimental: as §1, §2

T9 sequence (P08637 17-208 F176V): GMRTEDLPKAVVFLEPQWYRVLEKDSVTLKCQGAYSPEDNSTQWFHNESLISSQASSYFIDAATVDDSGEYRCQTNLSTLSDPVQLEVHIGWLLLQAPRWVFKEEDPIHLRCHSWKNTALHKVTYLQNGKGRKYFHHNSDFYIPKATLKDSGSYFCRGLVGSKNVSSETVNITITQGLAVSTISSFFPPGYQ

Binder	KD fold for humanFcgRs (SG1 = 1) [1]	KD fold for cynoFcgRs (SG1 = 1) [2]	KD fold for humanFcgRs (SG1 = 1) [3]	KD fold for cynoFcgRs (SG1 = 1) [4]	KD fold for humanFcgRs (SG1 = 1) [5]	KD fold for cynoFcgRs (SG1 = 1) [6]	KD fold for humanFcgRs (SG1 = 1) [7]	KD fold for cynoFcgRs (SG1 = 1) [8]	KD fold for cynoFcgRs (SG1 = 1) [9]
B1	1.6 fold	2.5 fold	1.1 fold	1.3 fold	1.1 fold	1.5 fold	2.79 fold	2 fold	2.25 fold
B2	1.6 fold	2.5 fold	1.3 fold	1.6 fold	1.4 fold	1.5 fold	4.05 fold	2.2 fold	3.6 fold
B3	2.9 fold	3.6 fold	2.1 fold	3 fold	3.4 fold	2.5 fold	3.38 fold	3.4 fold	3.8 fold

— patent US20200317768A1 (published 2020)
